The values that follow come from the RNAGym collection of RNA variant scans (doi:10.7554/elife.80360).

The chains are these.
B1: CPEB3 Ribozyme (parent)
chain: GGGGGCCACAGCAGAAGCGUUCACGUCGCGGCCCCUGUCAGAUUCUGGUGAAUCUGCGAAUUCUGCUGU

Variants of B1 are the subject of this data set. Description: self-cleavage, relative activity (ratio to wild type); higher = more cleavage; co-transcriptional.
Consider GGGGGCCACAGCAGAAGCGUUCACGUCGGGGCCCCUGUCAGAUUCUGGUGAAUCUGCGAAGUCUGCUGU [C29G U61G], for which the self-cleavage came out at 0.348.

In the case of GGGGGCCACAGCAGAAGCGUUCACGUCGGGGCCCCUGUCAGAUUCUGGUCAAUCUGCGAAUUCUGCUGU [C29G G50C], the self-cleavage is 0.457.

Take GGGGGCCACAGCAGAAGCGUUCACGUCGGGCCCCCUGUCAGAUUCUGGUGAAUCUGCGAAUUCUGCUGU [C29G G31C]: the self-cleavage is 0.13.

Take GGGGGCCACAGCAGAAGCGUUCACGUCGAGGACCCUGUCAGAUUCUGGUGAAUCUGCGAAUUCUGCUGU [C29A C32A]: the self-cleavage turned out to be 0.297. As for GGGGGCCACAGCAGAAGCGUUCACGUCGGUGCCCCUGUCAGAUUCUGGUGAAUCUGCGAAUUCUGCUGU [C29G G30U], the figure is 0.219. The figure for GGGGGCCACAGCAGAAGCGUUCACGUCGAGGCCCCUAUCAGAUUCUGGUGAAUCUGCGAAUUCUGCUGU [C29A G37A] is 0.207; for GGGGGCCACAGCAGAAGCGUUCACGUCGGGGCCCCUGUCAGAUUCUGGUGUAUCUGCGAAUUCUGCUGU [C29G A51U] it is 0.439. Regarding GGGGGCCACAGCAGAAGCGUUCACGUCGGGGCCCCUGUCAGAUUCUGGUGGAUCUGCGAAUUCUGCUGU [C29G A51G], the self-cleavage was determined as 0.541. The figure for GGGGGCCACAGCAGAAGCGUUCACGUCGGGGCCCCUGUCAGAUUCUGGUGCAUCUGCGAAUUCUGCUGU [C29G A51C] is 0.484; for GGGGGCCACAGCAGAAGCGUUCACGUCGGGGCCCCUGUCAGAAUCUGGUGAAUCUGCGAAUUCUGCUGU [C29G U43A] it is 0.186. For GGGGGCCACAGCAGAAGCGUUCACGUCGGGGCCCCUGUCAGACUCUGGUGAAUCUGCGAAUUCUGCUGU [C29G U43C], the self-cleavage came out at 0.428. On to GGGGGCCACAGCAGAAGCGUUCACGUCGGGGCCCCUGUCAGAUUCUGGUGAAUCUGCGAAUUCUGCUUU [C29G G68U], for which the self-cleavage came to 0.8. With GGGGGCCACAGCAGAAGCGUUCACGUCGAGGCCCCUGUCAGAUUCUGGAGAAUCUGCGAAUUCUGCUGU [C29A U49A], the self-cleavage came out at 0.805. For the variant GGGGGCCACAGCAGAAGCGUUCACGUCGAGGCCCCUGUCAGAUUCUGGUGAAUCUGCGAAUUCUGAUGU [C29A C66A], the self-cleavage came out at 0.334. GGGGGCCACAGCAGAAGCGUUCACGUCGGGGUCCCUGUCAGAUUCUGGUGAAUCUGCGAAUUCUGCUGU [C29G C32U]: the self-cleavage amounted to 0.313. The figure for GGGGGCCACAGCAGAAGCGUUCACGUCGAGGCCCCUGUCAGAUUCUGGUGAAUCUGCGAAGUCUGCUGU [C29A U61G] is 0.613; for GGGGGCCACAGCAGAAGCGUUCACGUCGAGGCCCCUGUCAGAUUCUGGUGAAUCUGCGAACUCUGCUGU [C29A U61C] it is 0.374. With GGGGGCCACAGCAGAAGCGUUCACGUCGGGGCCCCUGUCAGAUUCUGGCGAAUCUGCGAAUUCUGCUGU [C29G U49C], the self-cleavage stood at 0.544. As for GGGGGCCACAGCAGAAGCGUUCACGUCGGGGCCCCUGUCAGAUUUUGGUGAAUCUGCGAAUUCUGCUGU [C29G C45U], the self-cleavage was determined as 0.601. As for GGGGGCCACAGCAGAAGCGUUCACGUCGAGGCCCCUGUCAGAUUCUGGUCAAUCUGCGAAUUCUGCUGU [C29A G50C], the figure is 0.71; as for GGGGGCCACAGCAGAAGCGUUCACGUCGGGGCCCCUGUCAGAUUCUGGUGAAUCUGCAAAUUCUGCUGU [C29G G58A], 0.327.

With GGGGGCCACAGCAGAAGCGUUCACGUCGAGGCCCCUGUCAGAUUCCGGUGAAUCUGCGAAUUCUGCUGU [C29A U46C], the self-cleavage turned out to be 0.68. For the variant GGGGGCCACAGCAGAAGCGUUCACGUCGAGGCCCCUGUCAGAUUCAGGUGAAUCUGCGAAUUCUGCUGU [C29A U46A], the self-cleavage stood at 0.845. As for GGGGGCCACAGCAGAAGCGUUCACGUCGAGGCCCCUGUAAGAUUCUGGUGAAUCUGCGAAUUCUGCUGU [C29A C39A], the figure is 0.327.

For the variant GGGGGCCACAGCAGAAGCGUUCACGUCGAGGCCCCUGUCAGAUUCUGGUGAAUGUGCGAAUUCUGCUGU [C29A C54G], the self-cleavage was determined as 0.299. As for GGGGGCCACAGCAGAAGCGUUCACGUCGAGGCCCCUGUCAGAUUCUGGUGAAUUUGCGAAUUCUGCUGU [C29A C54U], the figure is 0.682; as for GGGGGCCACAGCAGAAGCGUUCACGUCGAGGCCCCUGUCAUAUUCUGGUGAAUCUGCGAAUUCUGCUGU [C29A G41U], 0.296; as for GGGGGCCACAGCAGAAGCGUUCACGUCGAGGCCCCUGUCAAAUUCUGGUGAAUCUGCGAAUUCUGCUGU [C29A G41A], 0.215.

Consider GGGGGCCACAGCAGAAGCGUUCACGUCGAGGCCCCUGUCAGAUUCUGGUGAAUCUGUGAAUUCUGCUGU [C29A C57U], for which the self-cleavage stood at 0.247. As for GGGGGCCACAGCAGAAGCGUUCACGUCGAGGCCCCUGUCAGAUUCUGGUGAAUCUGCGAAUUCUGCGGU [C29A U67G], the figure is 0.79.

GGGGGCCACAGCAGAAGCGUUCACGUCGAGGCCCCUGUCAGAUUCUAGUGAAUCUGCGAAUUCUGCUGU [C29A G47A]: the self-cleavage turned out to be 0.796. As for GGGGGCCACAGCAGAAGCGUUCACGUCGAGGCCCCGGUCAGAUUCUGGUGAAUCUGCGAAUUCUGCUGU [C29A U36G], the self-cleavage worked out at 0.179.

Regarding GGGGGCCACAGCAGAAGCGUUCACGUCGAGGCGCCUGUCAGAUUCUGGUGAAUCUGCGAAUUCUGCUGU [C29A C33G], the self-cleavage was found to be 0.281.

For GGGGGCCACAGCAGAAGCGUUCACGUCGAGGCUCCUGUCAGAUUCUGGUGAAUCUGCGAAUUCUGCUGU [C29A C33U], the self-cleavage is 0.594. The figure for GGGGGCCACAGCAGAAGCGUUCACGUCGGGGCCCCUGUCAGAUUCUGGUGACUCUGCGAAUUCUGCUGU [C29G A52C] is 0.467; for GGGGGCCACAGCAGAAGCGUUCACGUCGAGGCCCCUGUCAGAUUCUGGUGAAUCUCCGAAUUCUGCUGU [C29A G56C] it is 0.297. The figure for GGGGGCCACAGCAGAAGCGUUCACGUCGAGGCCCCUGUCAGAUUCUGGUGAAUCUUCGAAUUCUGCUGU [C29A G56U] is 0.367. On to GGGGGCCACAGCAGAAGCGUUCACGUCGAGGCCCCUGUCAGAUUCUGGUGAAUCUACGAAUUCUGCUGU [C29A G56A], for which the self-cleavage amounted to 0.492. The figure for GGGGGCCACAGCAGAAGCGUUCACGUCGAGGCCCCUGUCAGAUUCUGGUGAAUCUGCGAAUUCUGCUAU [C29A G68A] is 0.914.
